Measured values published in the DeepSol protein solubility set.

test: soluble on expression in E. coli; label from the status in PepcDB or PDB records

Sequence	soluble on expression in E. coli
MSMKGKETMSNEKIVVGKFGATYGIRGWLKVFSYTDNAESIFDYSPWYINQKGKWVEYKVESWKRHNKGMVAKLEGMDVREDAHLMTNFEIAIDPAVLPELSEDEFYWRELFGMHVVTTKGYDLGVVTDMLETGSNDVLVVKANLKDAFGQKERLIPFLEEQVIIKVDREAQRIEVDWDPGFLEHHHHHH	soluble
MGLSNRAIIIDGKNHLLGRLASIVAKKLLQGDKVVVLRAEEIVISGNFHRSKLKYMSFLRKRCNINPARGAFHYRAPGKIFWRTVRGMLPHKTNRGNEALKNLRAYEGVPAKYQKTKSLHAPSASRFRLQPRRKFCVVGRLSHEVGWQFQDVVAKLEAKRKVKGAAYFEQKKKMDKLAVQAKKNAAPKIAQYQKIIEALGYN	not soluble
MWRRYPQVEEKLGWYSRVMRGEEPPKYRIVRTFEVGFDSEDDIRRALTEELWREHERVAGEFRRLFRSLREGGSYEGDIKDARPSLMDVKVELVRRLASPCELCERRCRVERAKSRRGACRLAWEVYVHSAFLHLGEEAPLVPSGTIFYGGCNFTCVFCQNWDVSQWKARDAHIVTPRRLGEIQDRLAEAGARNINHVGGDPVPSLHVIVESMKYASHLKPQLWNSNMYMTLEALDILVDLIDIWLPDLKFGNDRCAMRLSAVPRYWEVTTRNILLAAEHGDMIIRHLVMPGHVECCTKPVLRWIAENLGDRVLVNIMDQYHPDNLVLRMPHKWPEIARRPSRREIEEAWRYAEQLGLDWEPVTK	not soluble
MSLKGIVEKSVGDLETLAFDGRTYIEYLNAVTESEKALQSNHFELSLRTEATQGLVLWIGKVGERADYMALAIVDGHLQLSYDLGSQPVVLRSTVKVNTNRWLRVRAHREHREGSLQVGNEAQVTGSSPLGATQLDTDGALWLGGMQKLPVGQALPKAYGTGFVGCLRDVVVGHRQLHLLEDAVTKPELRPCPTEGHHHHHH	soluble
RGGSFAKSWRPMTMSYANLSVDKVEHRALVLNTPYSIIRTIGKQGLEEKRFYASEKELEQVFNPIHHLATDTTARFSQLRGRNVMVIIIESFARQYVGRLNQDIPDYKGYTPCFDSISQKGYLFEQAFANGRKSIDAMPSILSSLPSLRSHFITSHYSGNEIEGLGTALGRIGYQSIFLHGAPNGSMGFDAFVKQAGYKRYFGKTEYAHDEDFDGVWGIWDEPFLLHAVDELSRMKQPFVGTLFTLSSHEPFHIPSHREGLFPNEGEPLVQCIGYTDHALGEFFRKASRQTWFENTLFVITADHASGDLRPEYRSAVGR	not soluble
MSIISTKYLLQDAQANGYAVPAFNIHNAETIQAILEVCSEMRSPVILAGTPGTFKHIALEEIYALCSAYSTTYNMPLALHLDHHESLDDIRRKVHAGVRSAMIDGSHFPFAENVKLVKSVVDFCHSQDCSVEAELGRLGGVEDDMSVDAESAFLTDPQEAKRFVELTGVDSLAVAIGTAHGLYSKTPKIDFQRLAEIREVVDVPLVLHGASDVPDEFVRRTIELGVTKVNVATELKIAFAGAVKAWFAENPQGNDPRYYMRVGMDAMKEVVRNKINVCGSANRISA	soluble
MGHHHHHHSHDSKACISIGNQNFEVKADDLEPIMELGRGAYGVVEKMRHVPSGQIMAVKRIRATVNSQEQKRLLMDLDISMRTVDCPFTVTFYGALFREGDVWICMELMDTSLDKFYKQVIDKGQTIPEDILGKIAVSIVKALEHLHSKLSVIHRDVKPSNVLINALGQVKMCDFGISGYLVDSVAKTIDAGCKPYMAPERINPELNQKGYSVKSDIWSLGITMIELAILRFPYDSWGTPFQQLKQVVEEPSPQLPADKFSAEFVDFTSQCLKKNSKERPTYPELMQHPFFTLHESKGTDVASFVKLILGD	not soluble
GSDSLIRDLSGLSQKMVQTLLEQIRSNYDDYLTFSNTYTDEENETLINLEKTQSDLQKFMTQLDHLIKDDISNTQEIIKDVLEYLKKLDEIYGSLRNHSQLTEALSLGKRLSKSLHEMCGIEPLEEEICSGLIEQLYKLITASRRILESCADSNSPYIHHLRNDYQDLLQEFQISLKILTEKCLENPSSLQNLSLTLVSIIKTA	soluble
MIRKDDILKMTEKGISVFRYYLPVDFKVGKNFLNPFYKDTKASCNIYYERKAGVFKMKDFGNEDYSGDCFELVGRLNGLSCKEPKEFVEIMEMINRDLHLGLSAHEEYHVSHSKVPQKSEVVSEEPKAKSVRPYTVVQKPFTAAELAFWGKSGIGENVLKAYRTVSLKKFSSENQERKPFSCMTSVDEPMFGYMGKQHIKVYRPCSQMRFLYAGDFGDNYCFGLEQLPAKGDLLFITGGEKDVMSLAAHGFHAICFNSETAFIPAAVIHRLSFRFKHIILLYDVDSTGLKSSAKREEELKEYGIKRLLLPLAGTKTEKDVSDYFMLGNSREDLIKLFLDYLETLYSETMSALKSCEVDFNNPPPIAQMIVSVNDVPLGTQGNLLCITGGEGTGKSNYVAALIAGAIRPTGTDVDALGVTLHENSRNKAVLFYDTEQSEVQLYKNISNLLRRCGREAMPEWFKAYCLTGMSRKERLLSIIQSLDKYHYQYGGVHLVVIDGIADLIKCANDEAESIAVVEELYRLAGIYKTCIVTVLHFIPNGLKLRGHLGSELQRKAAAILSIEKDSDPAISVVKALKVRDGSPLDVPIMQFSWDKEKAMHVYLGEKPKEEKDKRKEDELVAVAKEVFSRRRFVTYVELAEEIQSILEVKERTAKSYIRFMREKEIILKSSDNQSYYVVGNF	not soluble
MGSDKIHHHHHHMLKDFAKLETFLIVVRERSFSKASAKLGISQPAVTQQIKYIEEYLDTKIIERKKNGVKLTKDGEKLLTIALRLERAIVTAEKETMKIIKKDFSFNIGASFTIGNYILPNCLGNIKEMIKNDVFVKIDSSDNIIEALIEKKIDLALIESPIFKDNIVYREWVEDEFVLFSNSPLPKTVKKEDLLTFSWICREWGSNTRRIINETLDDVGIDCTTFDIKGVVSSSTGVKHTVLKSPKFPEESPKPTVAILSKYVVQDDLVNNSLHESKIRGCKLKRKLYLAYLKDRKNDAFVDTVSSCLMCNKNLG	not soluble
MSLSDSRSDDRHPSVTPEQLATLSHEFRTPLNGVLGMARLLENTKLTAEQRSYVTALRESGDHLLSLVNDVLHFARLGAAAIELSLAPVDIEGLLRQVAELMSPRAHEKGIEIAWAVSSPLPTILADEGRLRQILLNFAGNAVKFTEAGGVLLTASAIDGGRVRFSVADTGPGVAPDARARIFEAFVQTDVTHATQLGGAGLGLAIVSRLSAAMGGAVGVGGELGQGAEFWFEAPFATAAAPLRAAPLEGRNVAIASPNAIVRAATARQIEAAGGRAYAAVDIASALAGAPADAVLLIDAALSGPRGALKPPAGRRSVVLLTPEQRDRIDRLKAAGFSGYLIKPLRAASLVAQVLQAVTADGVAEDEPAHDDRIAGAVASGARVLLAEDNPINALLARTLLEREGCIVDRVADGEQAIAAASAGVYDLILMDLRMPGLTGIEAARALRAKGVATPIAALTADAFDEDRRTCLAAGMDDFLVKPLTQEALRDALKRWTTGGVSGEGHHHHHH	soluble
MAHHHHHHMKGLHIRPMNDSRLCERIKVLDDYCFPVKYTESYYNDYVRNSFHEFNQLAFYHDILVGSITCRLEKTATDGEHVLYIMTIGVLEAYRHLRIGSRLLQTVLSAVHNDTRNRIVAVTLHVQVGSPALKLYRQFNFEEVQLVENYYTDLDECNAILLRRVVPQPHFEHHKKFK	not soluble
HGSMTDTYLHETLVFDNKLSYIDNQRDTDGPAILLLPGWCHDHRVYKYLIQELDADFRVIVPNWRGHGLSPSEVPDFGYQEQVKDALEILDQLGVETFLPVSHSHGGWVLVELLEQAGPERAPRGIIMDWLMWAPKPDFAKSLTLLKDPERWREGTHGLFDVWLDGHDEKRVRHHLLEEMADYGYDCWGRSGRVIEDAYGRNGSPMQMMANLTKTRPIRHIFSQPTEPEYEKINSDFAEQHPWFSYAKLGGPTHFPAIDVPDRAAVHIREFATAIRQGQ	soluble
HKQLNFVDLYYHPVLADMAALLSQKNVFKAIYTFVPRTDDMGDKPALFVIHSGNTGSDVYRPLFTGIKRPSFPIYVIEPHNLLNPEDQIYGIENLAKYYLQMINKFLPESSKREINLMGWSYGGVVASEMCYQLEHETSLLHVNQLTVLDSSFYLSSEDLQRVRKREANGFYAKYFTETHIFEGMDKKNVTTERLIANNHQVCEDLFNYHSKQVNVATTFVRSMVEENPLTDEQIKLLFKHVTIKNVYDGHDYLFVHESSRSLIQDVLGLAA	not soluble
